B1: MalE-Mpk2, the Xenopus homologue of SAPK2a (protein)
chain: MSSNQSYVFYRQELNKTLWEVPDRYQNLTPVGSGAYGSVCSSFDTRTALRIAVKKLSRPFQSIIHAKRTYRELRLLKHMKHENVIGLLDVFSPAKSFEEFNDVYLVTHLMGADLNNIVKCQKLTDDHVQFLIYQILRGLKYIHSAGIIHRDLKPSNLAVNEDCELKILDFGLARHTDEEMTGYVATRWYRAPEIMLNWMHYNQTVDIWSVGCIMAELLTGRTLFPGTDHIDQLKLILRLVGTPEPELLQKISSEAARNYIQSLPYMPKMNFEDVFLGANPQAVDLLEKMLVLDTDKRITAAEALAHSYFAQYHDPDDEPIAEPYDQSFESRELDIEEWKRLTYEEVTCFVPPPLDSEEMES
B2: human GST-SAPK2b (protein)
chain: MSGPRAGFYRQELNKTVWEVPQRLQGLRPVGSGAYGSVCSAYDARLRQKVAVKKLSRPFQSLIHARRTYRELRLLKHLKHENVIGLLDVFTPATSIEDFSEVYLVTTLMGADLNNIVKCQALSDEHVQFLVYQLLRGLKYIHSAGIIHRDLKPSNVAVNEDCELRILDFGLARQADEEMTGYVATRWYRAPEIMLNWMHYNQTVDIWSVGCIMAELLQGKALFPGSDYIDQLKRIMEVVGTPSPEVLAKISSEHARTYIQSLPPMPQKDLSSIFRGANPLAIDLLGRMLVLDSDQRVSAAEALAHAYFSQYHDPEDEPEAEPYDESVEAKERTLEEWKELTYQEVLSFKPPEPPKPPGSLEIEQ
B3: rat GST-SAPK3 (protein)
chain: MSSPPPARKGFYRQEVTKTAWEVRAVYQDLQPVGSGAYGAVCSAVDSRTGNKVAIKKLYRPFQSELFAKRAYRELRLLKHMRHENVIGLLDVFTPDETLDDFTDFYLVMPFMGTDLGKLMKHETLSEDRIQFLVYQMLKGLKYIHAAGVIHRDLKPGNLAVNEDCELKILDFGLARQADSEMTGYVVTRWYRAPEVILNWMRYTQTVDIWSVGCIMAEMITGKILFKGNDHLDQLKEIMKVTGTPPPEFVQKLQSAEAKNYMEGLPELEKKDFASVLTNASPQAVNLLEKMLVLDAEQRVTAAEALAHPYFESLRDTEDEPKAQKYDDSFDDVDRTLEEWKRVTYKEVLSFKPPRQLGARVPKETAL
B4: human GST-SAPK4 (protein)
chain: MSLIRKKGFYKQDVNKTAWELPKTYVSPTHVGSGAYGSVCSAIDKRSGEKVAIKKLSRPFQSEIFAKRAYRELLLLKHMQHENVIGLLDVFTPASSLRNFYDFYLVMPFMQTDLQKIMGMEFSEEKIQYLVYQMLKGLKYIHSAGVVHRDLKPGNLAVNEDCELKILDFGLARHADAEMTGYVVTRWYRAPEVILSWMHYNQTVDIWSVGCIMAEMLTGKTLFKGKDYLDQLTQILKVTGVPGTEFVQKLNDKAAKSYIQSLPQTPRKDFTQLFPRASPQAADLLEKMLELDVDKRLTAAQALTHPFFEPFRDPEEETEAQQPFDDSLEHEKLTVDEWKQHIYKEIVNFSPIARKDSRRRSGMKL
B5: SKK3 purified from rabbit skeletal muscle (protein)
chain: MSQSKGKKRNPGLKIPKEAFEQPQTSSTPPRDLDSKACISIGNQNFEVKADDLEPIMELGRGAYGVVEKMRHVPSGQIMAVKRIRATVNSQEQKRLLMDLDISMRTVDCPFTVTFYGALFREGDVWICMELMDTSLDKFYKQVIDKGQTIPEDILGKIAVSIVKALEHLHSKLSVIHRDVKPSNVLINTLGQVKMCDFGISGYLVDSVAKTIDAGCKPYMAPERINPELNQKGYSVKSDIWSLGITMIELAILRFPYDSWGTPFQQLKQVVEEPSPQLPADKFSAEFVDFTSQCLKKNSKERPTYPELMQHPFFTVHESKATDVASFVKLILGD

Tests used:
GST-cJun(1-194), P05412 = target: T1, GST-cJun(1-194), P05412
T1 chain: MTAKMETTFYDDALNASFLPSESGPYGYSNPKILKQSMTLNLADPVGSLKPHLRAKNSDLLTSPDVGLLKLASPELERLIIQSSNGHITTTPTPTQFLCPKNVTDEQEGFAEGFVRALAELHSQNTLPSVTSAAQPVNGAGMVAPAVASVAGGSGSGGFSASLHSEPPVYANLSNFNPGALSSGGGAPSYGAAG

[1] = target: MAPKAP-K2 (substrate of Table 1, construct not stated), P49137
GST-ATF2(19-96), P15336 = target: T2, GST-ATF2(19-96), P15336
T2 chain: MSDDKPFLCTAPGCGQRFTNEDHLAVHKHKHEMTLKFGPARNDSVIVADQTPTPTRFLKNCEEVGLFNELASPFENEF

[2] = target: GST-Elk1(307-428) [GST: P08515]
[3] = target: T3, GST-SAP1(267-431), P28324
T3 chain: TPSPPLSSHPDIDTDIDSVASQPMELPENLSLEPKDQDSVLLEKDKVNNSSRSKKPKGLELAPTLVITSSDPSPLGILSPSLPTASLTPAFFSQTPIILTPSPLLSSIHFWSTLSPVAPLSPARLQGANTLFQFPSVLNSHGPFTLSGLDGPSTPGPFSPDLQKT

[4] = target: GST-SAP2(221-417) [GST: P08515]
[5] = target: GST-MAPKAP-K2(46-400), P49137
[6] = target: GST-MAPKAP-K2(5-400), P49137
[7] = target: T4, MalE-Mpk2, the Xenopus homologue of SAPK2a, P47812
T4 chain: B1 chain

rat GST-SAPK3, Q63538 = target: T5, rat GST-SAPK3, Q63538
T5 chain: B3 chain

human GST-SAPK4 = target: T6, human GST-SAPK4
T6 chain: B4 chain

MAPKAP-K2 (substrate of Table 1, construct not stated), P49137, sequence (P49137 46-400): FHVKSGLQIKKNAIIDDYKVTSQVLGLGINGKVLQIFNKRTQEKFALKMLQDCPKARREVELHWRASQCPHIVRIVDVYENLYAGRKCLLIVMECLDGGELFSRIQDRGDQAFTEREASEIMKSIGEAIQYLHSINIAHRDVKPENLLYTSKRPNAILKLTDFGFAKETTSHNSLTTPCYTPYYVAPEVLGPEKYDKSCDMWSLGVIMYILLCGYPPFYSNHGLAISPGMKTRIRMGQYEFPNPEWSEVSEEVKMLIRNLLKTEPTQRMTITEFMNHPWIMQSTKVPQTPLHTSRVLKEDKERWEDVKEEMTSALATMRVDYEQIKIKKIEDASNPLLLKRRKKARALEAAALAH
GST-MAPKAP-K3, Q16644, sequence (Q16644 whole entry, looked up): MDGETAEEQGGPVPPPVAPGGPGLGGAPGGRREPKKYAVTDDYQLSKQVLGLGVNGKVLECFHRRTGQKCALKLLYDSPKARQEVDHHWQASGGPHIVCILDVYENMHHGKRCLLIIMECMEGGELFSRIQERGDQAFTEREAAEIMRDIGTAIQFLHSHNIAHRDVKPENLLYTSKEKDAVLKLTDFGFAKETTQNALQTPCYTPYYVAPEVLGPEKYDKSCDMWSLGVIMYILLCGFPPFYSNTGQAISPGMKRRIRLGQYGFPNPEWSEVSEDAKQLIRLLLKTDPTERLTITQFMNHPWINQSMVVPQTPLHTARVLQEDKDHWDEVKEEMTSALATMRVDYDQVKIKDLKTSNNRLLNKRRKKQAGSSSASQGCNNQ
GST-MAPKAP-K2(46-400), P49137, sequence (P49137 46-400): as the sequence (P49137 46-400) above
GST-MAPKAP-K2(5-400), P49137, sequence (P49137 5-400): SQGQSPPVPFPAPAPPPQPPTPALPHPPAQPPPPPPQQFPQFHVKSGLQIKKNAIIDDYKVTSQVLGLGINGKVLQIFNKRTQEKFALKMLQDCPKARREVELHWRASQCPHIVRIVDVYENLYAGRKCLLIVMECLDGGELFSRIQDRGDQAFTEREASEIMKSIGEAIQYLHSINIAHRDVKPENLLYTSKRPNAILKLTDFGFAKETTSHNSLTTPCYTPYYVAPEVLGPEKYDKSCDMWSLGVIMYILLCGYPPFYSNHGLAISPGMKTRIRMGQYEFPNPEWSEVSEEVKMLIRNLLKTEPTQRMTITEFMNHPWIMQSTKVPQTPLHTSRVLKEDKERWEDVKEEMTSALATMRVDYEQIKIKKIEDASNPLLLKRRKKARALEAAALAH

Protein	rate of phosphorylation of substrate (1 µM) relative to MBP (% of rate with MBP) (GST-cJun(1-194), P05412)	rate of phosphorylation of substrate (1 µM) relative to MBP (relative to MBP (=100)) (GST-cJun(1-194), P05412)	rate of phosphorylation of substrate (1 µM) relative to MBP (% of rate with MBP) [1]	rate of phosphorylation of substrate (1 µM) relative to MBP (% of rate with MBP) (GST-MAPKAP-K3, Q16644)	phosphorylation sites on ATF2 (32P, mutants, phosphoamino acid analysis) (GST-ATF2(19-96), P15336)	rate of phosphorylation of substrate (1 µM) relative to MBP (% of rate with MBP) (GST-ATF2(19-96), P15336)	rate of phosphorylation of substrate (1 µM) relative to MBP (relative to MBP (=100)) (GST-ATF2(19-96), P15336)	rate of phosphorylation of substrate (1 µM) relative to MBP (% of rate with MBP) [2]	rate of phosphorylation of substrate (1 µM) relative to MBP (relative to MBP (=100)) [2]	rate of phosphorylation of substrate (1 µM) relative to MBP (% of rate with MBP) [3]	rate of phosphorylation of substrate (1 µM) relative to MBP (relative to MBP (=100)) [3]	rate of phosphorylation of substrate (1 µM) relative to MBP (% of rate with MBP) [4]	further results
B1	4	2	90	87	SAPK2 and SAPK3 phosphorylate ATF2 at Thr69 and Thr-71, and that only SAPK3 phosphorylates Ser-90	40	86	90	122	25	55	–	–
B2	7	–	83	66	–	62	–	136	–	27	–	18	–
B3	–	2	25	20	SAPK2 and SAPK3 phosphorylate ATF2 at Thr69 and Thr-71, and that only SAPK3 phosphorylates Ser-90	–	107	–	181	–	108	–	rate of phosphorylation of substrate (1 µM) relative to MBP (relative to MBP (=100)) [4]: 20; activation of MAPKAP-K3 (initial rate and half time for maximal activation) (GST-MAPKAP-K3, Q16644): 20 times slower; activation of MAPKAP-K2 (initial rate and half time for maximal activation) [5]: 20 times slower
B4	6	–	28	18	–	–	–	175	–	62	–	8	activation of MAPKAP-K2 (initial rate and half-time for maximal activation) [6]: 20 times slower; activation of MAPKAP-K3 (initial rate and half-time for maximal activation) (GST-MAPKAP-K3, Q16644): 20 times slower
B5	–	–	–	–	–	–	–	–	–	–	–	–	activation of SAPK2 (MBP kinase activity) in vitro [7]: The rate of activation of SAPK3 by SKK3 was similar to that of SAPK2; 32P phosphorylation, phosphoamino acid analysis (GST-SAPK4(D168A)): the inactive SAPK4 mutant could only be phosphorylated on tyrosine and not on threonine; activation of SAPK3 (MBP kinase activity) in vitro (rat GST-SAPK3, Q63538): SAPK3 was activated in vitro by a highly purified preparation of SKK3 from skeletal muscle; activation of SAPK4 (MBP kinase activity) in vitro (human GST-SAPK4): SAPK4 was activated in vitro by a highly purified preparation of SKK3 from skeletal muscle; phosphorylation stoichiometry at plateau (human GST-SAPK4): reached a plateau at ˜1.6 mol/mol subunit; rate of activation compared with SAPK2a (human GST-SAPK4): occurred two- to three-fold more slowly than that of SAPK2a

From patent US6617117
